In article PMC3747585:

How the values were obtained:
[1] = target: CspA (full-length CspA^26–251) from Borrelia burgdorferi (Borrelia burgdorferi); experiment: ELISA
[2] = target: NT-647-labeled human C7 (human) (UniProt P10643); experiment: MST
[3] = target: NT-647-labeled human C9 (human) (UniProt P02748); experiment: MST

Chain of factor H (P08603 19-1231): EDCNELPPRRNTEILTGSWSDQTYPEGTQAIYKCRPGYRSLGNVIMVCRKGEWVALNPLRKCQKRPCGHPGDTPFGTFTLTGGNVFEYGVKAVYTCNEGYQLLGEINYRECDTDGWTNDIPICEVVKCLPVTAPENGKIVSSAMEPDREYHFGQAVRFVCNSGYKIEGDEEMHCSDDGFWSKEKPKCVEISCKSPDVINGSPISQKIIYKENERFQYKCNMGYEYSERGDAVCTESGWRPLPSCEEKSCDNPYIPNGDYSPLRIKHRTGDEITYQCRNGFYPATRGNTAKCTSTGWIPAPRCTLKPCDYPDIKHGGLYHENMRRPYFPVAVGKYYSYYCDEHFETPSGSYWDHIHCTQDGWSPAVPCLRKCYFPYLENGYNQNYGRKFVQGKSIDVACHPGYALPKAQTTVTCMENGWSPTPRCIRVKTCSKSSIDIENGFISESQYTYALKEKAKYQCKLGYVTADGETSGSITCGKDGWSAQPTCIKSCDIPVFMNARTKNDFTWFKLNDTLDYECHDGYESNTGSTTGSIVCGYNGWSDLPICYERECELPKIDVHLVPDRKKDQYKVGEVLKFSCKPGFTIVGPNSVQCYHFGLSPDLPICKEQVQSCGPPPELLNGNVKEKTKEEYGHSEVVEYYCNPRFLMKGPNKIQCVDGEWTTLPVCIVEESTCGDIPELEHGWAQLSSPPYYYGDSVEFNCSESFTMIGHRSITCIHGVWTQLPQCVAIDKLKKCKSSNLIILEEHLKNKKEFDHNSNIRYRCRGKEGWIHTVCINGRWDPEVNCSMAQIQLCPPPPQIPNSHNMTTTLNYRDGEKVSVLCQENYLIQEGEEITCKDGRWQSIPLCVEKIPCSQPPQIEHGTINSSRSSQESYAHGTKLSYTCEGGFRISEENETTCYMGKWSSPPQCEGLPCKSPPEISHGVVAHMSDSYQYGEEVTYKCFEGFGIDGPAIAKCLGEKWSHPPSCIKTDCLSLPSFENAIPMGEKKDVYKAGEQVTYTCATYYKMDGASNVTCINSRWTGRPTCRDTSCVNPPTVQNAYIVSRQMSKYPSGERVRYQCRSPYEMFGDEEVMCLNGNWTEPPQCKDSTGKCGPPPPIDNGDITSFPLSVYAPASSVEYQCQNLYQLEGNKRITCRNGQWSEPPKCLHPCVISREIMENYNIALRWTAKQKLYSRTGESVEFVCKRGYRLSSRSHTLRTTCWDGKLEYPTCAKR

For “human terminal complement component C9 (from UniProt P02748 22-559) (natural protein)”, the percent inhibition of binding by NaCl at 0.15 M [1] was 35%.

“human terminal complement component C7 (from UniProt P10643 23-843) (natural protein)” showed a percent reduction of binding by NaCl at 0.15 M [1] of 60% and a percent reduction of binding by heparin at 500 µg/ml [1] of 42%.

In the case of “factor H (from UniProt P08603 19-1231) (natural protein)”, the percent reduction of C7 binding to CspA by factor H at 5 µg/ml [1] is reported as 17% and the percent reduction of C9 binding to CspA by factor H at 5 µg/ml [1] is reported as 23%.

Substance “CspA (full-length CspA^26–251) from Borrelia burgdorferi (natural protein)” has a Kd [2] of 5.1 µM and a Kd [3] of 3.4 µM.
